Biological target: eukaryotic translation initiation factor 4E (human (endogenous in U2OS and HeLa)) (UniProt P06730)
Assay: proximity ligation

Chain of UniProt P06730 (P06730 whole entry): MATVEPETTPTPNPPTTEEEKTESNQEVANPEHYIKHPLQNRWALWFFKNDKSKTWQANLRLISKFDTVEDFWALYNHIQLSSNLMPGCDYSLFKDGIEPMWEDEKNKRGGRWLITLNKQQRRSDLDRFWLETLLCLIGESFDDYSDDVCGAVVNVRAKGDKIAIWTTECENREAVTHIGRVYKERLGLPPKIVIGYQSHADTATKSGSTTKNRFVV

With HIV-1 Gag-GFP (natural protein) the PLA dots per cell (dots per cell) was 6.98.

From paper PMC4817256
